Assay [1] has as its target SENP1 C603A (415–644) (human) (UniProt Q9P0U3). As to the kind of experiment: ITC.
The target of the next assay is SENP1 (415–644) (human) (UniProt Q9P0U3).
Sequence of SENP1 (415–644) (human) (Q9P0U3 415-644): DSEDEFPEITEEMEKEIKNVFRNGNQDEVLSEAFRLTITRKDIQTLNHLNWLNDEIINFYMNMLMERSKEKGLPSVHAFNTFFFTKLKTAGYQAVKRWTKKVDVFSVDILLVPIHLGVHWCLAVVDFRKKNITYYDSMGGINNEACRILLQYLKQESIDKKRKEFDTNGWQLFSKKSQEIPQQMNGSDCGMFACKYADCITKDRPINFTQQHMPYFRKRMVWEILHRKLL

Sequence of SENP1 C603A (415–644) (human) (Q9P0U3 415-644 C603A): as the sequence (Q9P0U3 415-644) above, with C189A counted along it

In assay [1], “mature SUMO-2 (SUMO-2-GG) (from UniProt P55854 1-93) (natural protein)” returned a dissociation constant Kd of 0.00856 µM and a dH of -14.5 kcal/mol. In the assay with SENP1 (415–644) (human), the IC50 of product inhibition of SENP1 cleavage of YFP–RanGAP1–SUMO-2–ECFP (500 nM) was 1.6 µM and the IC50 of product inhibition of SENP1 cleavage of YFP–SUMO-2-FL–ECFP (500 nM) is 2.23 µM.
As for “YFP–RanGAP1–SUMO-2–ECFP (from UniProt P46060 418-587; P55854 1-93) (complex)”, the apparent Km, Km(app), of cleavage by SENP1 (FRET-based protease assay) with SENP1 (415–644) (human) was determined as 0.242 µM.

For the origin of these results see publication PMC3326531.
